# T1: Pyrococcus DNA polymerase with a sequence non-specific DNA binding domain (Pyrococcus)
# T1 chain: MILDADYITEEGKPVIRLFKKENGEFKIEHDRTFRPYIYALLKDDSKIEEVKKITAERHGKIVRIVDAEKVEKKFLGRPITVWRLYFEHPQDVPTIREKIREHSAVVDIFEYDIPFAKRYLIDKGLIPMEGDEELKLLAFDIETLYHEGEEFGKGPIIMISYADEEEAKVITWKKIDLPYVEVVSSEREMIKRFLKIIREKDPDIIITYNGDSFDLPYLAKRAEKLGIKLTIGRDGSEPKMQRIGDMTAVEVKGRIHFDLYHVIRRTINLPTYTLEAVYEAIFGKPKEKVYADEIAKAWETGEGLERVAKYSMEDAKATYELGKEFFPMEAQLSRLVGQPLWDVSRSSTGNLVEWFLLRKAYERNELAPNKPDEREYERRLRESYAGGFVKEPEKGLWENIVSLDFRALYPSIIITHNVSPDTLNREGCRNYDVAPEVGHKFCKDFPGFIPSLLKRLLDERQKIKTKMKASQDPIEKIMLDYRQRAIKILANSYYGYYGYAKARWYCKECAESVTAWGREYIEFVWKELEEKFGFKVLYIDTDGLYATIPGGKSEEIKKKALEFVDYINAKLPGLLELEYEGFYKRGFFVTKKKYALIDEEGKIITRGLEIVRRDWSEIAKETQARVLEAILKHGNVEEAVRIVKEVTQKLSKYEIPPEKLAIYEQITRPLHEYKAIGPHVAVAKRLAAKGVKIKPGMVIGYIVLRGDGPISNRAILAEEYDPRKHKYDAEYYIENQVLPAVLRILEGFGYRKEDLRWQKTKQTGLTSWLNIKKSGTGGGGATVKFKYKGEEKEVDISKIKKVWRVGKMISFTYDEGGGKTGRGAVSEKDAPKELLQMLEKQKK
# Columns and labels:
# [1] = target: T1, Pyrococcus DNA polymerase with a …; test: cell-based or functional assay
# [2] = target: T1, Pyrococcus DNA polymerase with a …; test: indirect ELISA, apparent dissociation constant
# Procedure: The affinity of monoclonal antibodies was determined by measuring their apparent dissociation constants (kD) by an indirect ELISA (Table 2).
binder,measurement,setting,value
"5D3 (antibody, V domains shown, also called 5D3 antibody) VH: SGPGLVAPSQSLSITCTVSGFSLTDYGVSWVRQSPGQGLEWLGIIWGDGSTDYHSSLISRLRISKDNSKSQVFLKLNSLQTDDTATYYCARPVIGNYAMDYWGQG VL: TQSPASLAVSLGQRATISCRASESVEYYGTRLMQWYQQKPGKAPKLLIYGASNVESGVPARFSGSGSGTDFSLNIHPVEEDDFAMYFCQQSRKVPWTFGGG",Inhibition of exonuclease activity,[1],71 molar ratio enzyme:antibody (1:x)
same,Inhibition of polymerase activity,[1],20 molar ratio enzyme:antibody (1:x)
same,Kd,[2],0.29 nM

# — patent publication US20170204454A1 (THERMO FISHER SCIENTIFIC BALTICS UAB, published 2017)
